Assay [1] addresses VE-cadherin-VC (VE-cadherin ectodomain and transmembrane domain fused to the C-terminal Venus fragment) (human) (UniProt P33151). The experiment in a line: split reporter (BiFC, NanoBiT); Venus BiFC (VN155 I152L with VC155 A206K) in live HEK293T cells, 0.5 ug of each construct, confocal microscopy 24 h after transfection; mean BiFC intensity per cell or BiFC/DeepRed ratio, compared with control pairings.

Another assay deals with T1, bFos BiFC construct (UniProt P01100 118-210).
T1 construct: transcription factor Fos, the construct called bFos
T1 sequence (P01100 118-210): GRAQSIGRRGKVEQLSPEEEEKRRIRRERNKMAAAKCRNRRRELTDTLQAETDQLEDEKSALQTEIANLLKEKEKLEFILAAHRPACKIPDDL
In words: split reporter (BiFC, NanoBiT); validation of the quantitative BiFC analysis with bJun/bFos (positive) and bJun/bΔFos (negative); BiFC/DeepRed ratio and mean BiFC intensity; details in S1-S4 Figs. Conditions: partners not purified.

Chain of VE-cadherin-VC (VE-cadherin ectodomain and transmembrane domain fused to the C-terminal Venus fragment) (human) (P33151 26-625): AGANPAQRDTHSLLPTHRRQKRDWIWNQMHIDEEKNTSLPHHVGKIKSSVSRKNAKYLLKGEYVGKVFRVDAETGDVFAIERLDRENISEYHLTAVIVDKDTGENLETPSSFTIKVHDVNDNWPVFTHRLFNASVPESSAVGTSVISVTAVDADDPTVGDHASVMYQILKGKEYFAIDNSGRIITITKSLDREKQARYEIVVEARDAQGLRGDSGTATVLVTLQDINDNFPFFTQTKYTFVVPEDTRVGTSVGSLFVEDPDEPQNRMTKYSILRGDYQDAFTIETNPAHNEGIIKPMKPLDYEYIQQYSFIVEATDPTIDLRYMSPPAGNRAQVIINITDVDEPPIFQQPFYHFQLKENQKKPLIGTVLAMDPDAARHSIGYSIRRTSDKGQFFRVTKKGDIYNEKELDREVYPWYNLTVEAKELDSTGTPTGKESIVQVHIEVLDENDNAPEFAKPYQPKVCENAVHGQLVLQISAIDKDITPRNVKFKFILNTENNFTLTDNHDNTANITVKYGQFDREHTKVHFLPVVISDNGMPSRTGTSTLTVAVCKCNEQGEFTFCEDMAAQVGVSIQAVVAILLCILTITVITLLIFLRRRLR

Regarding “VE-PTP-VN (vascular endothelial protein tyrosine phosphatase, ectodomain and transmembrane domain, fused to the N-terminal Venus fragment) (domain or fragment)”, in assay [1], the S/N (median BiFC/DeepRed ratio over that of the negative pairing) was 6.5 and the fold mean BiFC value over controls fell in the range of 2 to 3 fold.

B1: bJun BiFC construct (domain or fragment, UniProt P05412 257-318, looked up)
chain: RKRMRNRIAASKCRKRKLERIARLEEKVKTLKAQNSELASTANMLREQVAQLKQKVMNHVNS
notes: transcription factor Jun, the construct called bJun
For B1, in the assay with bFos BiFC construct, the “S/N (median BiFC/DeepRed ratio of the positive pairing over that of the negative pairing bJun/bΔFos)” value was determined as 7.7 and the “fold difference in mean BiFC fluorescence intensity over bJun/bΔFos” value was determined as 6 fold.

Values taken from publication PMC5604967, “Defining the molecular basis of interaction between R3 receptor-type protein tyrosine phosphatases and VE-cadherin” (PLoS ONE, 2017).
